Data reported in patent US20210269521A1 (L AND L BIOPHARMA, published 2021).

Tests used:
[1] = target: T1, human TIM-3 extracellular domain-human IgG1 Fc fusion protein (human, UniProt Q8TDQ0 22-199); assay: ELISA; pH 5.5, 37°C 7 days
T1 construct: Made in house or bought (ACROBiosystems TM3-H5258); also called TIM-3-hFc; not shown: human IgG1 Fc

[2] = target: T2, human PD-1 extracellular domain protein expressed in Example 1 (tag not stated) (human, UniProt Q15116 25-170); assay: ELISA; pH 5.5, 37°C 7 days
T2 construct: extracellular domain; also called PD-1 protein; not shown: human IgG1 Fc or his tag

[3] = target: T1, human TIM-3 extracellular domain-human …; assay: ELISA; pH 5.5, 37°C 5 days
[4] = target: T2, human PD-1 extracellular domain protein …; assay: ELISA; pH 5.5, 37°C 5 days
[5] = target: T1, human TIM-3 extracellular domain-human …; assay: ELISA; 37°C 0 day, against 0 day
[6] = target: T2, human PD-1 extracellular domain protein …; assay: ELISA; 37°C 0 day, against 0 day
[7] = target: T1, human TIM-3 extracellular domain-human …; assay: ELISA; pH 6.0, 0 day, against 0 day
[8] = target: T2, human PD-1 extracellular domain protein …; assay: ELISA; pH 6.0, 0 day, against 0 day
[9] = target: T1, human TIM-3 extracellular domain-human …; assay: ELISA; preparation buffer, 37°C 7 days
[10] = target: T2, human PD-1 extracellular domain protein …; assay: ELISA; preparation buffer, 37°C 7 days
[11] = target: T1, human TIM-3 extracellular domain-human …; assay: ELISA; pH 5.5, 40°C 5 days, against 0 day
[12] = target: T2, human PD-1 extracellular domain protein …; assay: ELISA; pH 5.5, 40°C 5 days, against 0 day
[13] = target: T1, human TIM-3 extracellular domain-human …; assay: ELISA; preparation buffer, 37°C 7 days, against 0 day
[14] = target: T2, human PD-1 extracellular domain protein …; assay: as above
[15] = target: T1, human TIM-3 extracellular domain-human …; assay: ELISA; 28.5 mg/mL, His buffer pH 5.5, 37°C 0 day (-80°C)
[16] = target: T2, human PD-1 extracellular domain protein …; assay: as above
[17] = target: T1, human TIM-3 extracellular domain-human …; assay: ELISA; preparation buffer, 37°C 14 days (degraded sample)
[18] = target: T2, human PD-1 extracellular domain protein …; assay: as above
[19] = target: T2, human PD-1 extracellular domain protein …; assay: blocking ELISA, PD-1 coated, competitor biotin-labeled PD-L1
[20] = target: T2, human PD-1 extracellular domain protein …; assay: ELISA, EC50 of bispecific over EC50 of the monoclonal control
Description: After washing the microplate 5 times with PBST, 50 μl/well TMB chromogenic substrate (KPL, 52-00-03) was added to the microplate, followed by incubating at room temperature for 10-15 min.
PD-1 expressed in Example 1 was diluted to a concentration of 1 μg/ml with PBS buffer, pH 7.4, and added to a 96-well microplate (Corning, CLS3590-100EA) at 50 μl per well, thereby incubating in an incubator at 37° C. for 2 hours. After discarding the liquid, a blocking solution of 5% skimmed milk (Shanghai Shenggong Biological Engineering Co., Ltd., A600669-0250) diluted with PBS was added at 200 μl per well, followed by incubating at 37° C. for 3 hours or 4° C. overnight (16-18 hours)) for blocking. Subsequently, the blocking solution was discarded, and the microplate was washed 5 times with PBST buffer (pH 7.4 PBS containing 0.05% tween-20). […] Subsequently, the microplate was washed 5 times with PBST, then 50 μl/well of 1:2500 diluted HRP-labeled secondary antibody (Jackson Immuno Research, 115-035-003) was added, thereby incubating at 37° C. for 1 hour. After washing the microplate 5 times with PBST, 50 μl/well TMB chromogenic substrate (KPL, 52-00-03) was added, then incubated at room temperature for 5-10 min. Finally, 50 μl/well of 1M H₂SO₄ was added to stop the reaction. […] Go microplate reader (ThermoFisher, 51119200) was used to read the absorption value at 450 nm and the EC50 based on the OD value was calculated.

[21] = target: T2, human PD-1 extracellular domain protein …; assay: double-sandwich ELISA: PD-1 coated, LB141 titrated, detected with Bio-TIM-3-his and streptavidin-HRP
Description: After discarding the liquid, 200 μl/well of blocking solution of 5% skimmed milk (Sangon Biotech (Shanghai) Co., Ltd., A600669-0250) diluted with PBS was added, and the microplate was placed at 4° C. overnight (16-18 hours) for blocking. After discarding the blocking solution, the microplate was washed 5 times with PBST buffer (pH 7.4 PBS containing 0.05% tween-20). […] Followed by washing the plate 5 times with PBST, 50 μl/well of 1 μg/ml Bio-TIM-3-his (ACROBiosystems, TM-H5229) was added and incubated at 37° C. for 1 hour. Then the microplate was washed 5 times with PBST again, and 50 μl/well 1:1000 diluted streptavidin-HRP secondary antibody (Nanjing Genscript Biotech Corporation, M00091) was added and incubated at 37° C. for 1 hour. After washing the microplate 5 times with PBST, 50 μDwell TMB chromogenic substrate (KPL, 52-00-03) was added and incubated at room temperature for 5-10 min.

EC50 [1]: 157 pM
EC50 [2]: 128 pM
EC50 [3]: 334 pM
EC50 [4]: 217 pM
Fold change of EC50 [5]: 1 ratio
Fold change of EC50 [6]: 1 ratio
Fold change of EC50 [7]: 1 ratio
Fold change of EC50 [8]: 1 ratio
EC50 [9]: 325 pM
EC50 [10]: 331 pM
Fold change of EC50 [11]: 0.95 ratio
Fold change of EC50 [12]: 1.1 ratio
Fold change of EC50 [13]: 1.07 ratio
Fold change of EC50 [14]: 0.86 ratio
EC50 [15]: 360 pM
EC50 [16]: 181 pM
EC50 [17]: 14500 pM
EC50 [18]: 446 pM
IC50 [19]: 1660 pM
Multiple of EC50 variation [20]: 1.32 ratio
EC50 [21]: 816 pM
B1: bispecific antibody LB141 (bispecific antibody, human IgG4 S228P, kappa)
light: EIVLTQSPATLSLSPGERATLSCRASKGVSTSGYSYLHWYQQKPGQAPRLLIYLASYLESGVPARFSGSGSGTDFTLTISSLEPEDFAVYYCQHSRDLPLTFGGGTKVEIKRTVAAPSVFIFPPSDEQLKSGTASVVCLLNNFYPREAKVQWKVDNALQSGNSQESVTEQDSKDSTYSLSSTLTLSKADYEKHKVYACEVTHQGLSSPVTKSFNRGEC
heavy: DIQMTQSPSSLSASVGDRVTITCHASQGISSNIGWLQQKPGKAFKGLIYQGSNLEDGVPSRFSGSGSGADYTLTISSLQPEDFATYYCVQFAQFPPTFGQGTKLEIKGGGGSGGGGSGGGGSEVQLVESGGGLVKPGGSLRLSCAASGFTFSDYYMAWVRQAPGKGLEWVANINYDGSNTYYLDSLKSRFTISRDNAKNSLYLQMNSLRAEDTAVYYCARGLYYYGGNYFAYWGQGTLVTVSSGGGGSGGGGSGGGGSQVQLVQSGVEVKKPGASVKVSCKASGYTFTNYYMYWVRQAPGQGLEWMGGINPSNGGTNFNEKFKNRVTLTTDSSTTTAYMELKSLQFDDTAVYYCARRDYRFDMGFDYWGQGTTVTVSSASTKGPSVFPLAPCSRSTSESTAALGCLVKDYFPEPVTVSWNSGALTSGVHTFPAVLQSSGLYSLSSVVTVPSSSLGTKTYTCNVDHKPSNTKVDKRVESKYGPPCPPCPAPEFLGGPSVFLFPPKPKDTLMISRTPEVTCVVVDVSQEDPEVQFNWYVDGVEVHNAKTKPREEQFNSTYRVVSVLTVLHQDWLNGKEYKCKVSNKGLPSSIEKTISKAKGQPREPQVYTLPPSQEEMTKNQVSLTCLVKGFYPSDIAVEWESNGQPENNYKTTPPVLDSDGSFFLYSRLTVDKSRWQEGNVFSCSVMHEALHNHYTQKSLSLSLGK
notes: ab6VL-(G4S)3-ab6VH-(G4S)3-PemVH-hIgG4 with PemVL-κ
